Laboratory results from publication PMC2873993, “Comparative Therapeutic Effects of Velaglucerase Alfa and Imiglucerase in a Gaucher Disease Mouse Model” (PLoS ONE, 2010).
Positions count from the first letter of the chain named. Like-named read-outs stand apart in the source and are kept apart here.

Key:
[1] = GCase activity assay with 4MU-Glc substrate; assay type: biochemical; settings: for GCase activity, 4MU-Glc: mean ± SE; for GCase activity, 4MU-Glc / Km: n = 6
Procedure: (§1) Vela and Imig were compared for kinetic properties as described. Briefly, the standard GCase activity assay contained final concentrations of 50 mM citrate/phosphate, pH 5.5, 0.25% TC, 0.25% TX, and 4 mM 4MU-Glc in 200 µl. The reactions were stopped after incubation (30–60 min, 37°C) using 0.9 M ethylenediamine, pH 11.0 (100 µl). Standard curves for 4-MU fluorescence yield were generated for each assay with Ex/Em 460/515 nm (Molecular Dynamics SpectraMax GeminXS spectrofluorometer). […] For the reversible competitive inhibitors, Ki was calculated from IC50 = Ki (1+ [I]/[Km]). The IC50 or Ki values for various inhibitors (dNM and its derivatives, CBE, CS, IFG, DNPFG) were determined using 4MU-Glc as substrate. Activities with the NBD-GC substrate were as described. Enzyme assays with saposin C (0–500 nM/0.5 µM BPS) and BPS (0–2 µM) were as described, [40]. Saposin C was expressed in E. coli and purified as described. For thermostability assessments, equal amounts of Vela and Imig activities were added to 50 mM citrate/phosphate, pH 7.4, with or without human/mouse serum, and incubated for 0–240 min at 25 or 37°C. The pH optimum profiles were developed using 50 mM citrate/phosphate, pH 4.4–7.2. Protease susceptibilities of the two GCases were evaluated by cathepsin D (1–2 µM) digestion in 25 mM sodium acetate, pH 4.8, 50 mM NaCl, 1.25 mM EDTA, 1.25 mM DTT using 200 ng of Vela or Imig at 37°C for 4 h. All assays were conducted in triplicate and repeated at least twice. The amounts of intact enzyme were determined from density measurements on immunoblots and were compared to the initial amounts. The ratios of intact enzyme with and without cathepsin D were used as indicators of the enzyme's proteolytic susceptibility.

[2] = Activation of GCase by BPS in detergent-free system; assay type: biochemical; settings: for increase of activity with BPS: BPS 0 to 2 µM, detergent-free; for BPS concentration of maximal activation: in the absence of saposin C
Procedure: Activation of Vela and Imig by the negatively charged lipid, BPS, and saposin C was determined in a detergent-free system with varying concentrations of either agent. The activities of both enzymes increased by 5- to 6-fold or 15- to 17-fold with saposin C (0 to 500 nM) or BPS (0 to 2 µM), respectively. […] Similarly, in the absence of saposin C, both enzymes reacted maximal activation with 0.5 µM of BPS. No significant differences were found in these responses (p = 0.5875–0.8473).
as §1

[3] = pH optimum profile of GCase activity; assay type: biochemical; settings: profile pH 4.4–7.2
Procedure: as §1, with “For thermostability assessments, equal amounts of Vela and Imig activities were added to 50 mM citrate/phosphate, pH 7.4, with or without human/mouse serum, and incubated for 0–240 min at 25 or 37°C. The pH optimum profiles were developed using 50 mM citrate/phosphate, pH 4.4–7.2.” left out, “All assays were conducted in triplicate and repeated at least twice.” left out, “The ratios of intact enzyme with and without cathepsin D were used as indicators of the enzyme's proteolytic susceptibility.” left out

[4] = test system: 9 V/null mice; experiment: Injection-related deaths; assay type: in vivo, mouse; settings: 60 U/kg once a week for 8 weeks
Procedure: With additional injections, IgG positivity increased in all dosing groups and several mice died. With the 5 or 15 U/kg/wk doses only a few mice died, whereas with 60 U/kg/wk doses, 9/42 Vela-injected and 20/59 Imig-injected mice died following injections during the 4- to 8-wk period (Table 5). Prior to death, these mice became immobile and their lips/tails became cyanotic. Most mice died within 30 to 60 min post-injection. However, placing treated mice in an oxygen chamber for 20 to 30 min after injection led to the survival of most of the animals. The mice that succumbed were immediately dissected, and sera were analyzed for IgE titers and histology. […] Total serum IgE levels from these mice injected with Vela or Imig were 46.4 to 234.9 ng/ml (n = 3) or 115.8 to 239.6 ng/ml (n = 3), respectively (p = 0.3626). In comparison, saline-injected 9 V/null serum values were 6.8 to 8.8 ng/ml (n = 6) (Fig. 7B).
Mice were anesthetized with isoflurane.

[5] = test system: 9 V/null mice; experiment: Mouse anti-human GCase IgG ELISA
[6] = Serum GCase activity, CRIM and CRIM-SA after i.v. bolus; settings: for Recovery of injected activity in serum: 60 U/kg bolus, peak 2 min, % ± SE
[7] = test system: 9 V/null mice; experiment: Total serum IgE ELISA in mice that died after injection; settings: mice that died after 4 or 5 injections of 60 U/kg/wk, n = 3
[8] = mouse, in vivo, iv
[9] = mouse, in vivo
[10] = test system: 9 V/null mice; settings: mouse, in vivo
[11] = test system: patients; settings: human, in vivo; cited from earlier work

B1: velaglucerase alfa (protein)
chain: ARPCIPKSFGYSSVVCVCNATYCDSFDPPTFPALGTFSRYESTRSGRRMELSMGPIQANHTGTGLLLTLQPEQKFQKVKGFGGAMTDAAALNILALSPPAQNLLLKSYFSEEGIGYNIIRVPMASCDFSIRTYTYADTPDDFQLHNFSLPEEDTKLKIPLIHRALQLAQRPVSLLASPWTSPTWLKTNGAVNGKGSLKGQPGDIYHQTWARYFVKFLDAYAEHKLQFWAVTAENEPSAGLLSGYPFQCLGFTPEHQRDFIARDLGPTLANSTHHNVRLLMLDDQRLLLPHWAKVVLTDPEAAKYVHGIAVHWYLDFLAPAKATLGETHRLFPNTMLFASEACVGSKFWEQSVRLGSWDRGMQYSHSIITNLLYHVVGWTDWNLALNPEGGPNWVRNFVDSPIIVDITKDTFYKQPMFYHLGHFSKFIPEGSQRVGLVASQKNDLDAVALMHPDGSAVVVVLNRSSKDVPLTIKDPAVGFLETISPGYSIHTYLWRRQ
modifications: N-linked oligosaccharides with higher α-mannosyl content (predominant number of mannoses is 9)
- greater activity compared to Imig ([1]; 4MU-Glc and GC substrates): 6–10%
- GCase activity, 4MU-Glc [1]: 1,030,480±2,692 nmole/h/mg
- Km [1]: 1590 ± 200 µM
- increase of activity with BPS [2]: 15- to 17 fold
- BPS concentration of maximal activation [2]: 0.5 µM
- pH of peak activity [3]: 5.4–5.6
- Death (%) of total injected mice ([4]; No-oxygen): 22.6%
- Death, number of mice ([4]; No-oxygen): 7
- Death (%) of total injected mice ([4]; Oxygen chamber minimum 20 min): 18.2%
- Death, number of mice ([4]; Oxygen chamber minimum 20 min): 2
- Death (%) of total injected mice ([4]; Total number): 21%
- Death, number of mice ([4]; Total number): 9
- serum anti-GCase IgG signals ([5]; 5 or 15 U/kg/wk, each bleed): at background or very low levels
- injected mice with increased serum anti-GCase IgG ([5]; 60 U/kg/wk, by the 4th injection): > 50%
- increase of serum anti-GCase IgG levels above background ([5]; 60 U/kg/wk, by the 4th injection, at ∼3×10^3 dilution): ~3 fold
- Recovery of injected activity in serum ([6]; 5-wk 9 V/null mice): 63.06±4.62%
- serum activity by 20 min post-injection ([6]; 9 V/null mice, 60 U/kg i.v.): < 10 % of the 2-min values
- t½ of clearance of GCase activity in serum ([6]; 9 V/null mice, 60 U/kg i.v.): 8 to 11 min
- Recovery of injected activity in serum ([6]; 20-wk 9 V/null mice): 58.16±1.61%
- catalytic value (CRIM-SA) of intact enzyme remaining in serum by 20 min ([6]; 60 U/kg i.v.): < 10 % of its original catalytic value
- t½ of GCase CRIM disappearance in serum ([6]; both age groups, 60 U/kg i.v.): ~13 min
- Total serum IgE levels [7]: 46.4 to 234.9 ng/mL

B2: imiglucerase (protein)
chain: B1 chain with R495H
modifications: short N-linked oligosaccharide chains with ~3 exposed α-mannosyl residues
- GCase activity, 4MU-Glc [1]: 966,000±8,467 nmole/h/mg
- Km [1]: 1650 ± 250 µM
- increase of activity with BPS [2]: 15- to 17 fold
- BPS concentration of maximal activation [2]: 0.5 µM
- pH of peak activity [3]: 5.4–5.6
- Death (%) of total injected mice ([4]; No-oxygen): 48.4%
- Death, number of mice ([4]; No-oxygen): 15
- Death (%) of total injected mice ([4]; Oxygen chamber minimum 20 min): 17.9%
- Death, number of mice ([4]; Oxygen chamber minimum 20 min): 5
- Death (%) of total injected mice ([4]; Total number): 34%
- Death, number of mice ([4]; Total number): 20
- serum activity by 20 min post-injection [8]: < 10 % of the 2-min values
- t½ of GCase CRIM disappearance in serum [8]: ~13 min
- t½ of clearance of GCase activity in serum [8]: 8 to 11 min
- catalytic value (CRIM-SA) of intact enzyme remaining in serum by 20 min ([8]; 20 min): < 10 % of its original catalytic value
- time liver activity remained at ≥WT level [9]: ~180 min
- decrease of spleen enzyme activity by 40 min ([9]; iv): ~40%
- enzyme localized to the liver interstitial cells ([9]; iv): ≥ 80%
- enzyme recovered in spleens and lungs ([9]; iv): < 5%
- injected enzyme recovered from the liver ([9]; iv): ≥ 60%
- peak spleen activity lower than in 20-wk mice ([9]; iv): 2- to 3 fold
- t½ of CRIM disappearance in liver ([9]; iv): 90 to 110 min
- t½ of CRIM levels in spleen ([9]; iv): ~60 min
- t½ of GCase activity disappearance in liver ([9]; iv): ~100 min
- t½ of GCase protein disappearance in spleen ([9]; iv): 60 to 90 min
- t½ of activity disappearance in liver ([9]; iv): about 60 min
- injected mice with increased serum anti-GCase IgG [10]: > 50%
- documented IgE-mediated or anaphylactic reactions [11]: < 1%
- patients who developed an IgG antibody response [11]: 13–15%
